Assay results reported in PMC6453127 (Biochimica et biophysica acta. General subjects, 2017).

Biological target: the molecule itself
Assay: cross-linking

B1: His6-tagged Hsp90β CTD (530–724) (domain or fragment)
chain: not shown
binding result: binds
